The test addresses acetylcholine receptor (Homo sapiens, UniProt P02708). Nature of the test: SPR binding affinity (RU) of optimized 5mer/6mer/7mer peptides, Examples 6-7. As to conditions: SPR, peptides tested at 10 μM; 6mer-1 Top sequence. The method, boiled down:
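Single-concentration screen: 10 μM peptide, SPR detection, binding expressed as RU.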

acetylcholine receptor, sequence (P02708 21-457): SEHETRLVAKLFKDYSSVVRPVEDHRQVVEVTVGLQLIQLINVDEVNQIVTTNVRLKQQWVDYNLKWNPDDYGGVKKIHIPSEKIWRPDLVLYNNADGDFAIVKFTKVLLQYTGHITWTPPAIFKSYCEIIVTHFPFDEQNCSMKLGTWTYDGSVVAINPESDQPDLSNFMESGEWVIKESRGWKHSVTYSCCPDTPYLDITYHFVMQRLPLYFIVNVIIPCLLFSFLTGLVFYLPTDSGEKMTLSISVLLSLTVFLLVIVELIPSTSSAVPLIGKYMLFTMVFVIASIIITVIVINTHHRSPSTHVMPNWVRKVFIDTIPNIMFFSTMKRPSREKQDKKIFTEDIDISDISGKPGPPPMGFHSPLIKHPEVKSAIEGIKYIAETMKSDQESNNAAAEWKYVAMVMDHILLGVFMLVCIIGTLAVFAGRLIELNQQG

On to 6mer-1-431 (RRRFRR), for which the Binding affinity is 144 Ru. The value for 6mer-1-432 (RKGIQK) was 139 Ru. For 6mer-1-433 (RKQQYR) the value was 154 Ru. On to 6mer-1-434 (KRWVCR), for which the Binding affinity was determined as 137 Ru. For 6mer-1-435 (RKWRCK) the value was 135 Ru.

Regarding 6mer-1-436 (KKLFYK), the Binding affinity is given as 148 Ru.

Regarding 6mer-1-437 (RKWFLK), the Binding affinity is given as 131 Ru. For the substance 6mer-1-438 (RRGFQK), the Binding affinity stood at 142 Ru. The value for 6mer-1-439 (KRRQTK) was 121 Ru; that for 6mer-1-440 (KRVYSK) was 153 Ru. 6mer-1-441 (RRVYYR): the Binding affinity turned out to be 146 Ru. For 6mer-1-442 (RKLQYK) the value was 131 Ru; for 6mer-1-443 (RKVLLK), 145 Ru; for 6mer-1-444 (KKWILK), 144 Ru. For 6mer-1-445 (KRVRLR), the Binding affinity turned out to be 145 Ru.

Consider 6mer-1-446 (RRVIRR), for which the Binding affinity is 124 Ru. For 6mer-1-447 (RRRQQK) the value was 146 Ru; for 6mer-1-448 (RKRFSR), 141 Ru. The value for 6mer-1-449 (KRGRCK) was 135 Ru.

As to 6mer-1-450 (RKVVYK), the Binding affinity stood at 151 Ru. For 6mer-1-451 (RKVRLR) the value was 153 Ru; for 6mer-1-452 (KRLYTR), 141 Ru; for 6mer-1-453 (KKWQQK), 154 Ru. As for 6mer-1-454 (RKVLRR), the Binding affinity is 124 Ru. For 6mer-1-455 (RRVFYK), the Binding affinity amounted to 126 Ru.

On to 6mer-1-456 (RRGQYR), for which the Binding affinity came out at 153 Ru. In the case of 6mer-1-457 (RKLLCR), the Binding affinity is listed as 121 Ru. Regarding 6mer-1-459 (RRWVYK), the Binding affinity turned out to be 131 Ru.

Consider 6mer-1-460 (RRGFYR), for which the Binding affinity was 148 Ru. As for 6mer-1-461 (RRGYTR), the Binding affinity is recorded as 142 Ru.

6mer-1-462 (RKQILK): the Binding affinity amounted to 126 Ru. For 6mer-1-463 (KRSFRK) the value was 153 Ru. For 6mer-1-464 (RRQRLK) the value was 131 Ru; for 6mer-1-465 (RKQVYK), 154 Ru; for 6mer-1-466 (KRSICR), 148 Ru. For 6mer-1-467 (KRGYQK) the value was 121 Ru; for 6mer-1-468 (RRLYRR), 153 Ru; for 6mer-1-469 (KKLIYR), 139 Ru. Take 6mer-1-470 (KKWVYR): the Binding affinity is listed as 148 Ru. For 6mer-1-471 (KKWRCK), the Binding affinity amounted to 123 Ru. Consider 6mer-1-472 (KRQRCK), for which the Binding affinity came out at 142 Ru. The value for 6mer-1-473 (KKVLSK) was 154 Ru; that for 6mer-1-474 (KRLFSK) was 121 Ru; that for 6mer-1-475 (RKLQTK) was 148 Ru. As for 6mer-1-476 (KRRRQK), the Binding affinity worked out at 154 Ru. Consider 6mer-1-477 (KRQQTK), for which the Binding affinity is recorded as 145 Ru. As for 6mer-1-478 (RKVRYK), the Binding affinity was 139 Ru.

As for 6mer-1-479 (RRSLTR), the Binding affinity worked out at 135 Ru.

In the case of 6mer-1-480 (KKQFYK), the Binding affinity stood at 121 Ru.

As for 6mer-1-481 (KRWRCK), the Binding affinity is given as 133 Ru. The value for 6mer-1-482 (RKQVRK) was 133 Ru. The value for 6mer-1-483 (KRQVTK) was 151 Ru; that for 6mer-1-484 (KKLYLR) was 154 Ru. Take 6mer-1-485 (RRWYRR): the Binding affinity is 126 Ru.

For 6mer-1-486 (KRQVRK), the Binding affinity was determined as 151 Ru. For 6mer-1-487 (RKGRRK) the value was 121 Ru; for 6mer-1-488 (KKWYSK), 135 Ru. For 6mer-1-489 (KKVITK) the value was 148 Ru. For 6mer-1-490 (KKLFRR) the value was 133 Ru. For 6mer-1-491 (RKLRLR), the Binding affinity is 137 Ru.

Take 6mer-1-492 (RRWRQK): the Binding affinity came to 139 Ru. The value for 6mer-1-493 (KRGYLR) was 131 Ru. For 6mer-1-494 (KKLFSR) the value was 128 Ru; for 6mer-1-495 (RKGFQR), 126 Ru; for 6mer-1-496 (RRVYQR), 148 Ru. Consider 6mer-1-497 (KRRQLR), for which the Binding affinity is 133 Ru. On to 6mer-1-498 (RKRQQK), for which the Binding affinity came out at 139 Ru.

As for 6mer-1-499 (RKLFYR), the Binding affinity turned out to be 149 Ru. On to 6mer-1-500 (RKLQSK), for which the Binding affinity is 151 Ru. Consider 6mer-1-501 (KRVLYK), for which the Binding affinity came to 154 Ru. For 6mer-1-502 (RKLFSR) the value was 146 Ru; for 6mer-1-503 (KRRLCK), 151 Ru; for 6mer-1-504 (RRSITR), 122 Ru. Turning to 6mer-1-505 (RRRFTR), the Binding affinity came out at 148 Ru. The value for 6mer-1-506 (RRRLSK) was 151 Ru. Take 6mer-1-507 (RRSQSK): the Binding affinity is listed as 139 Ru. The value for 6mer-1-508 (RRQFSK) was 135 Ru; that for 6mer-1-509 (RKWLRK) was 128 Ru. As to 6mer-1-510 (KRRQSR), the Binding affinity is recorded as 122 Ru.

In the case of 6mer-1-511 (RKVYRR), the Binding affinity is listed as 136 Ru. The value for 6mer-1-512 (RKWICK) was 154 Ru; that for 6mer-1-513 (RKQIRR) was 154 Ru; that for 6mer-1-514 (KKGRSK) was 128 Ru. In the case of 6mer-1-515 (RRGLSR), the Binding affinity came to 139 Ru. Take 6mer-1-516 (KKRFSR): the Binding affinity is 139 Ru. Regarding 6mer-1-517 (KKGLCK), the Binding affinity turned out to be 139 Ru. For 6mer-1-518 (KRWVLK) the value was 153 Ru; for 6mer-1-519 (KRRQCK), 147 Ru. On to 6mer-1-520 (KRQIYK), for which the Binding affinity was 127 Ru. For 6mer-1-521 (RKVISR), the Binding affinity was found to be 128 Ru. On to 6mer-1-522 (RKRRLR), for which the Binding affinity amounted to 126 Ru. The value for 6mer-1-523 (KRRRSK) was 139 Ru; that for 6mer-1-524 (KKGRQK) was 148 Ru.

6mer-1-525 (RRQLRR): the Binding affinity stood at 139 Ru.

Turning to 6mer-1-526 (KRGYTR), the Binding affinity is on record as 148 Ru. For 6mer-1-527 (KKGIYR) the value was 142 Ru; for 6mer-1-528 (KRSYTR), 139 Ru; for 6mer-1-529 (RRSLCK), 139 Ru. Take 6mer-1-530 (KRLVSK): the Binding affinity amounted to 137 Ru. For 6mer-1-531 (RKGQTK) the value was 135 Ru; for 6mer-1-532 (KKSQLR), 121 Ru. For 6mer-1-533 (RKWFSR), the Binding affinity stood at 145 Ru. The value for 6mer-1-534 (KKRLCR) was 126 Ru; that for 6mer-1-535 (RRVILK) was 139 Ru; that for 6mer-1-536 (RRWFRK) was 151 Ru. The value for 6mer-1-537 (RRGLCK) was 154 Ru; that for 6mer-1-538 (RRSQCK) was 142 Ru; that for 6mer-1-539 (KRGIRK) was 148 Ru.

Regarding 6mer-1-540 (KRVQTR), the Binding affinity turned out to be 128 Ru.

Turning to 6mer-1-541 (RKWFTR), the Binding affinity was 136 Ru. The value for 6mer-1-542 (KRWFRR) was 128 Ru; that for 6mer-1-543 (RRSVCK) was 145 Ru; that for 6mer-1-544 (KRVICR) was 149 Ru. With 6mer-1-545 (RRSYRK), the Binding affinity is listed as 127 Ru. 6mer-1-546 (RKLVQR): the Binding affinity turned out to be 123 Ru. 6mer-1-547 (RKVQQR): the Binding affinity is given as 148 Ru.

Turning to 6mer-1-548 (RRVYSR), the Binding affinity is on record as 123 Ru. Turning to 6mer-1-549 (KKSYQR), the Binding affinity came to 142 Ru. With 6mer-1-550 (RRLICR), the Binding affinity worked out at 148 Ru. The value for 6mer-1-551 (KRGRLR) was 142 Ru; that for 6mer-1-552 (RKRYRK) was 144 Ru; that for 6mer-1-553 (RRGVRK) was 128 Ru.

On to 6mer-1-554 (KRSVTR), for which the Binding affinity came out at 131 Ru.

With 6mer-1-555 (KKWYLK), the Binding affinity was 128 Ru.

Take 6mer-1-556 (KKGFTK): the Binding affinity is 145 Ru. On to 6mer-1-557 (KRQVQK), for which the Binding affinity was determined as 128 Ru. Consider 6mer-1-558 (RRLIQR), for which the Binding affinity is 139 Ru. For 6mer-1-559 (RRRLTK), the Binding affinity was found to be 139 Ru.

6mer-1-560 (RRSFSK): the Binding affinity is 127 Ru. Regarding 6mer-1-561 (RKVYLK), the Binding affinity is on record as 131 Ru. The value for 6mer-1-562 (KRSYQR) was 148 Ru; that for 6mer-1-563 (RRSFTR) was 139 Ru.

For the origin of these results see patent US20250011363A1, “OPTIMIZED SHORTENED PEPTIDE THAT BINDS TO ACETYLCHOLINE RECEPTOR, AND USE THEREOF” (SKINMED CO., LTD., priority 2021, published 2025).
